Assay results as given in PMC3057501 (Molecular cell, 2011).

Molecular target: the molecule itself
Experiment: SEC-MALS

B1: human PAPD1 (residues 44-538), wild type (enzyme, UniProt Q9NVV4 44-538, looked up)
chain: EQPSGSVETGFEDKIPKRRFSEMQNERREQAQRTVLIHCPEKISENKFLKYLSQFGPINNHFFYESFGLYAVVEFCQKESIGSLQNGTHTPSTAMETAIPFRSRFFNLKLKNQTSERSRVRSSNQLPRSNKQLFELLCYAESIDDQLNTLLKEFQLTEENTKLRYLTCSLIEDMAAAYFPDCIVRPFGSSVNTFGKLGCDLDMFLDLDETRNLSAHKISGNFLMEFQVKNVPSERIATQKILSVLGECLDHFGPGCVGVQKILNARCPLVRFSHQASGFQCDLTTNNRIALTSSELLYIYGALDSRVRALVFSVRCWARAHSLTSSIPGAWITNFSLTMMVIFFLQRRSPPILPTLDSLKTLADAEDKCVIEGNNCTFVRDLSRIKPSQNTETLELLLKEFFEYFGNFAFDKNSINIRQGREQNKPDSSPLYIQNPFETSLNISKNVSQSQLQKFVDLARESAWILQQEDTDRPSISSNRPWGLVSLLLPSAPNR
- stoichiometry N: 2
